Measured values from patent EP4818209A2 (Primatope Therapeutics Inc., dated 2026).

Target: T1, recombinant human CD40 (human, UniProt P25942 21-120, limits assumed)
T1 construct: biotinylated there; also called hCD40; purified CD40
Experiment: binding kinetics to human CD40

T1 sequence (P25942 21-120 limits assumed): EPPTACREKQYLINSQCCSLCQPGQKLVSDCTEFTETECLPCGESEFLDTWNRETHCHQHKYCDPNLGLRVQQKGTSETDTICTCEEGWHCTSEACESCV

fold difference of affinity against murine 2C10: ≤ 2 fold
B1: humanized 2C10 antibody, Clone 2.189.2 (2C10_h3 + 2C10_l2) (antibody, V domains shown)
VH: QVQLVQSGAEVKKPGASVKVSCKASGYTFTNYWMHWVRQAPGQRLEWIGYINPSNDYTKYNQKFKDRATLTADKSANTAYMELSSLRSEDTAVYYCARQGFPYWGQGTLVTVSS
VL: EIVLTQSPATLSLSPGERATLSCSASSSVSYMHWYQQKPGQAPRRWIYDTSKLASGVPARFSGSGSGTDYTLTISSLEPEDFAVYYCHQLSSDPFTFGGGTKVEIK
notes: also called h2C10; mAb 2.189.2
